# Measured values from patent US12697366B2, “Thermogenic compositions and methods” (Ohio State Innovation Foundation, priority 2016, dated 2026).
# B1: IGFBP4: recombinant insulin-like growth factor binding protein 4 (protein)
# chain: DEAIHCPPCSEEKLARCRPPVGCEELVREPGCGCCATCALGLGMPCGVYTPRCGSGLRCYPPRGVEKPLHTLMHGQGVCMELAEIEAIQESLQPSDKDEGDHPNNSFSPCSAHDRRCLQKHFAKIRDRSTSGGKMKVNGAPREDARPVPQGSCQSELHRALERLAASQSRTHEDLYIIPIPNCDRNGNFHPKQCHPALDGQRGKCWCVDRKTGVKLPGGLEPKGELDCHQLADSFRE
# What was measured:
# ob/ob mice = experiment: AAC2, IGFBP4 and AAC2-IGFBP4 treatment of ob/ob mice; assay type: in vivo, mouse; details: ELISA, end of study
# Protocol: A study was performed in ob/ob mouse model of obesity, insulin resistance, and type 2 diabetes. Treatment groups (n=5) included vehicle (non-treated control), AAC2 nanofiber alone, IGFBP4 peptide alone, and AAC2-IGFBP4 peptide bound to nanofiber. 5-week old male Lep^ob mice (ob/ob mice, Jackson #000632-B6.Cg-Lepob/J, Homozygous for Lepob) were randomized into four groups (n=5/group). After 1 week assimilation period, mice were injected (10 μl/g body weight (BW)) into scapular region every 48 h for 4 weeks with: • Group 1: PBS vehicle control, • Group 2: 1 nmol AAC2/g BW, • Group 3: 0.0187 nmol human insulin-like growth factor binding protein 4 (hIGFBP4, Peprotech #350-05B), or • Group 4: AAC2/hIGFBP4 combination (1 nmol AAC2 and 0.0187 nmol hIGFBP4/g BW were assembled into complex prior to injection)
# 3T3-L1 preadipocytes = experiment: FD-glucose uptake in 3T3-L1 preadipocytes; assay type: cell-based, mouse; details: mouse recombinant IGFBP4; human insulin 10 μg/mL; 90 min
# Protocol: Non-differentiated, 90% confluent 3T3-L1 cells were starved with glucose-deprived medium for 40 min. Then cells were treated in the presence and absence of different concentrations of nanoscaffold #2 and bovine insulin (200 μg/mL), all of reagents dissolved in the same glucose-deprived medium but containing fluorescent-D (FD)-glucose for 80 min. Thereafter, the FD glucose uptake was measured according to manufacturer's instructions (Cayman Chemical, USA, cat #600471). […] Non-differentiated, 90% confluent 3T3-L1 cells treated in the presence and absence of different concentrations of nanoscaffold #2 and bovine insulin (10 μg/mL) or mouse epiregulin (EREG, 0.05 μg/mL) and incubated for 24 h. Then cells were starved with glucose-deprived medium for 40 min and, then incubated with fluorescent-D (FD)-glucose for 80 min. Thereafter, the FD glucose uptake was measured according to manufacturer's instructions (Cayman Chemical, USA, cat #600471). Data are shown as percent of uptake in the presence of insulin (100%).
# Non-differentiated, 90% confluent 3T3-L1 cells treated in the presence of bovine insulin (10 μg/mL), mouse epiregulin (EREG, 0.05 μg/mL), or their combinations and incubated for 24 h. Then cells were starved with glucose-deprived medium for 40 min and, then incubated with fluorescent-D (FD)-glucose for 80 min. Thereafter, the FD glucose uptake was measured according to manufacturer's instructions (Cayman Chemical, USA, cat #600471).
# Non-differentiated, 90% confluent 3T3-L1 cells were starved with glucose-deprived medium for 50 min. Then cells were treated in the presence and absence of different concentrations of mouse recombinant IGFBP4 with and without nanoscaffold #2 and human insulin (10 μg/mL). All of reagents were dissolved in the same glucose-deprived medium but containing fluorescent-D (FD)-glucose for 90 min. Thereafter, the FD glucose uptake was measured according to manufacturer's instructions (Cayman Chemical, USA, cat #600471).
# Glucose uptake assay was performed using glucose uptake cell-based assay kit (Cayman Chemical, Ann Arbor, MI). 3T3-L1 or human preadipocytes were cultured at a density of 5×10^4 per well into a 96-well plate (n=7) in high glucose media and grown overnight. Old cell culture medium was removed the next day and washed with PBS to remove residual glucose. Supplied 2-deoxy-2-[(7-nitro-2,1,3-benzoxadiazol-4-yl)amino]-D-glucose) (2-NBDG) was diluted to 150 μg/mL in DMEM medium without glucose, phenol red, L-glutamine, sodium pyruvate, and HEPES (Life technologies, Grand Island, New York). 100 μL of 2-NBDG glucose free medium with or without recombinant EREG and other treatments was added to the plated cells. After incubating at 37° C. for 30 minutes, cells were washed gently two times with 200 μL of glucose assay buffer. 100 μL of the assay buffer was added to each well and measured for fluorescence at an excitation/emission of 485/535 nm.
# Fluorescence glucose uptake (FD-glucose assay) was performed as described PMID: 32065973, using insulin, 1.7 μM and different AACs at concentration 0.1 μM.
# FD-glucose uptake in mouse 3T3-L1 preadipocytes (n=8 per treatment) treated with vehicle (Veh; PBS, open bar) or hINS (1.7 μM), mouse leptin (mLep; 12.5 nM, hatched bar), or AAC2 (0.1 μM black bar) in the presence and absence of GLUT1 inhibitor (BAY-876; 10 nM in DMSO). Cells were pre-treated with or without BAY-876 for 40 min and then FD glucose and treatment reagents were added for additional 80 min of incubation. Data (%) was normalized to FD-glucose uptake in control (Veh) 3T3-L1 cells without inhibitor (100%). Student's independent t-test.
molecule,measurement,setting,value
B1,hyperinsulinemia (insulin levels in the blood),ob/ob mice,reduction
same,"glucose uptake, concentration compared with insulin",3T3-L1 preadipocytes,improves glucose uptake at 100 lower concentration than insulin
